Measurements taken from patent US11497796B2, “Agents directed against a cis RGMa/neogenin interaction or lipid rafts and use of the same in methods of treatment” (UNIVERSITY HEALTH NETWORK, priority 2013, dated 2022).

T1: 4Ig-domain of Neogenin (Gallus gallus, UniProt Q90610)
T1 construct: made in house
T1 sequence (Q90610 1-383): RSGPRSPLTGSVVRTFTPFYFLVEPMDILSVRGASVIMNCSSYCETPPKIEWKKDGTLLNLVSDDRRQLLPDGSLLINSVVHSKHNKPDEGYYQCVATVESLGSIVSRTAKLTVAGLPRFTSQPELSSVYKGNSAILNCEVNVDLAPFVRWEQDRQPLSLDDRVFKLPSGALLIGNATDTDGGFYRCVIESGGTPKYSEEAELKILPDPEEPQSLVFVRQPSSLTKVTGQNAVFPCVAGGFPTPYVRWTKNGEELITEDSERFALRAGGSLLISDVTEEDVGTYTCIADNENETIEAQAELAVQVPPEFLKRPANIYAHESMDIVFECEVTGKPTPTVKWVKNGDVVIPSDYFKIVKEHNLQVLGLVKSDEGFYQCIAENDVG

B1: 4Ig: four immunoglobulin-like domains of Neogenin, amino acids 1 to 383 of Accession No. AAC59662 (SEQ ID NO:1) (protein, listed as Gallus gallus)
chain: RSGPRSPLTGSVVRTFTPFYFLVEPMDILSVRGASVIMNCSSYCETPPKIEWKKDGTLLNLVSDDRRQLLPDGSLLINSVVHSKHNKPDEGYYQCVATVESLGSIVSRTAKLTVAGLPRFTSQPELSSVYKGNSAILNCEVNVDLAPFVRWEQDRQPLSLDDRVFKLPSGALLIGNATDTDGGFYRCVIESGGTPKYSEEAELKILPDPEEPQSLVFVRQPSSLTKVTGQNAVFPCVAGGFPTPYVRWTKNGEELITEDSERFALRAGGSLLISDVTEEDVGTYTCIADNENETIEAQAELAVQVPPEFLKRPANIYAHESMDIVFECEVTGKPTPTVKWVKNGDVVIPSDYFKIVKEHNLQVLGLVKSDEGFYQCIAENDVGNAQAGAQLIILDLDVAIPTLPPTSLTSATNDHLAPATTGPLPTAPRDVVATLVSTRFIRLTWRTPVSDPQGDNLTYSIFYTKEGINRERVENTSRPGETQVMIQNLMPETVYVFRVVAQNKHGHGESSAPLKVATQPEVQLPGPAPNIRAYAGSPTSVTVTWETPLSGNGEIQNYKLYYMEKGQDSEQDVDVAGLSYTITGLKKYTEYSFRVVAYNKHGPGVSTQDVVVRTLSDVPSAAPQNLTLEARNSKSIMLHWQPPPAGTHSGQITGYKIRYRKVSRKSDVTESVGGTQLFQLIEGLERGTEYNFRIAAMTVNGTGPATDWVSAETFESDLDESRVPEVPSSLHVRPLVTSIVVSWTPPENQNIVVRGYAIGYGIGSPHAQTIKVDYKQRYYTIENLDPSSHYVITLKAFNNVGEGIPLYESAVTRPHSDTSEVDLFVINAPYTPVPDPSPMMPPVGVQASILSHDTIRITWADNSLPKNQKITDARYYTVRWKTNIPANTKYKTANATTLSYLVTGLKPNTLYEFSVMVTKGRRSSTWSMTAHGTTFELVPTSPPKDVTVVSKEGKPRTIIVNWQPPSEANGKITGYIIYYSTDVNAEIHDWVIEPVVGNRLTHQIQELTLDTPYYFKIQARNSKGMGPMSEAVQFRTPKAESSDKMPNDQASGSAGKGSRPVDVGPDYKPPLSGSNSPHGSPTSPLDSNMLLVIIVSVGVITIVIVVIVAVFCTRRTTSHQKKKRAACKSVNGSHKYKGNSKDVKPPDLWIHHERLELKPIDKSPDPNPIMTDTPIPRNSQDITPVDNSMDSNIHQRRNSYRGHESEDSMSTLAGRRGMRPKMMMPFDSQPPQPVISAHPIHSLDNPHHHFHSGSLASPTRSYLHHQVSPWPVGTSMSHSDRANSTESVRNTPSSDTMPASSSQPCADHQDPDSSSGAYLGSAQEEDAAQSLPTAHVRPSHPLKSFAVPAVPAAGSAYDPTLPSTPLLTQQAPSHPVHSVKTASIGTLGRTRPPMPVVVPSAPDVQETTRMLEDSESSYEPDELTKEMAHLEGLMKDLNAITTA
modifications: Neogenin - Accession No. AAC59662

Key:
4Ig-domain of Neogenin = biological target: T1, 4Ig-domain of Neogenin; assay: ELISA / AP binding assay of RGMa peptides to Neogenin domains; settings: ELISA, Neogenin domains fused to AP
Text: Specifically, the 4Ig-domain and 6FNIII-domain of Neogenin were each fused to alkaline phosphatase (AP). The 4Ig-domain and 6FNIII-domain of Neogenin were found in the extracellular portion of Neogenin. Accession No. AAC59662 (SEQ ID NO:1) was the amino acid sequence of Neogenin. The 4Ig-domain was amino acids 1 to 383 of Accession No. AAC59662 (SEQ ID NO:1). The 6FNIII-domain was amino acids 429 to 1036 of Accession No. AAC59662 (SEQ ID NO:1).
The binding of these fusions to various RGMa peptides were analyzed in an ELISA assay (FIG. 2A).
To determine if distinct N-terminal regions of RGMa bound the 4Ig- and 6FNIII-domains of Neogenin, peptides were generated that spanned the N-terminal region of RGMa. The amino acid sequence of RGMa was Accession No. NP_989868.1 (SEQ ID NO:6). These peptides were a peptide spanning amino acids 28-73 of RGMa (also referred to herein as “N-Raft”) and a peptide spanning amino acids 77-113 of RGMa (also referred to herein as “N-inh”). […] In a complementary experiment, in which the N-Raft and N-inh peptides of RGMa were fused with AP instead of the 4Ig- and 6FNIII-domains of Neogenin, N-Raft bound to the 4Ig-domain and not the 6FNIII-domain while N-inh bound to the 6FNIII-domain and not the 4Ig-domain (FIG. 9). Additionally, N-inh and N-Raft coated beads pulled down 6FNIII-domain and 4Ig-domain, respectively, which was consistent with the ELISA results described above (FIG. 2B).
The assay was conducted in a 96-well microtiter plate (Corning Incorporated). The wells were coated with 100 μl (10 μg/mL) of Poly-L-Lysine at 4° C. overnight. Wells were then washed three times with 100 μl of PB ST (+0.02% Tween).
50 μl (2.5 μg/mL) of His-tagged: Full-length Neogenin; the 4Ig-domain of Neogenin; and 6FNIII-domain of Neogenin were coated onto each well for 1 hour at 37° C. Following three washes of 100 μl PBST, each well was then blocked with 300 μl of 3% BSA in PBST for 1 hour at 37° C.
50 μl (1.0 μg/mL) AP-tagged: N-RGMa (28-73); N-RGMa (28-54); N-RGMa (40-62); N-RGMa (54-73); N-RGMa (54-62) in 1% BSA+PBST was then added to each well and incubated at 37° C. for 1 hour. Each well was washed thoroughly three times with 100 μl PBST followed by subsequent equilibration of each well with Alkaline Phosphatase (AP) developing buffer (100 mM NaHCO3, 1 mM MgCl2). The reaction was developed using AP developing buffer supplemented with, p-nitrophenyl phosphate (pNPP) (Sigma-Aldrich) and allowed to develop until color development. The reaction was stopped with the addition of 50 μl (0.1M) NaOH. The absorbance of each reaction was measured using a microplate autoreader (BIO-TEK Instruments Inc.) at 405 nanometers (nm) wavelength.

brain after stroke = assay: Cerebral focal ischemia model (MCA clot occlusion); format: in vivo, rat; settings: daily injections
Description: In all experiments, female Sprague-Dawley rats weighing 200-250 g were used. Briefly, focal cerebral ischemia was induced by injection of a preformed clot into the MCA. The rats were initially anesthetized with 3.0% isoflurane and then maintained with 1.5% isoflurane in a mixture of 30:70 O2 and […] with a face mask during surgery. Body temperature was maintained at 37° C. in the normothermic rats with a heating pad for the duration of surgery and in the immediate postoperative period until the animal was fully recovered from anesthesia.
A 1.5-cm longitudinal incision was made in the midline of the ventral cervical skin. The right common carotid artery (CCA), right internal carotid artery (ICA), and right external carotid artery (ECA) were exposed. The distal portion of the ECA was ligated and cut. A modified polyethylene-10 catheter, filled with bovine thrombin (Thrombostat, TM Warner-Lambert Co.), was introduced into the lumen of the right ECA via a small puncture. Ten micro liters of blood was withdrawn into the catheter and retained for 15 minutes to allow formation of a clot. […] After returning to their cage, animals were monitored for normal recovery.
The infarct volume was expressed as a percentage of the total volume from the ipsilateral hemisphere. Brain edema was determined by calculating the volume difference between the 2 hemispheres and dividing by the volume of the left hemisphere.
Briefly, 7 days after MCA occlusion the anesthetized rats were killed. […] The images were analyzed and the determination of infarct volume and edema was blinded. The infarct volume was calculated using the following formula: Infarct volume=[left hemisphere volume−(the right hemisphere volume−measured infarct volume)]/left hemisphere volume.
Brain swelling was determined using the following formula: Swelling (edema)=(right hemisphere volume−left hemisphere volume)/left hemisphere volume. […]
Briefly, neurological deficits were determined using a modified Bederson's scoring system. […] Mortality was also recorded. […]

Molecule | interaction with the 4Ig-domain of Neogenin (4Ig-domain of Neogenin) | brain edema compared to control (brain after stroke) | infarct volume compared to control (brain after stroke) | behavioral deficits compared to control (brain after stroke; Bederson test)
N-Raft: peptide spanning amino acids 28-73 of RGMa (SEQ ID NO:2) (SPCKILKCNSEFWAATSGSHHLGAEETPEFCTALRAYAHCTRRTAR; N-Raft - amino acids 28-73 of RGMa) | interacted |  |  | 
B1 |  | significantly reduced | significantly reduced | significantly reduced
